For 2 proteins, Km, kcat and kcat/Km results are on record in PMC12507022, “Widespread distribution of BpfA-mediated bisphenol F degradation among members of the Pseudomonadota and Actinomycetota” (The ISME Journal, 2025).

The term Km denotes the substrate concentration at which the rate is half of its maximum. As usually defined, the kcat is the number of substrate molecules converted per active site and unit of time at saturation.

Common to all, as to assay: HPLC, Michaelis-Menten fit
What all share (details): 20 mM Tris-HCl pH 8.0, 30 °C, O2 as electron acceptor

Substrate in data set [1]: Oc1ccc(Cc2ccc(O)cc2)cc1
In kind it is biochemical, Penicillium simplicissimum.

Substrate in data set [2]: CCCc1ccc(O)c(OC)c1
The data set is classed as biochemical, Penicillium simplicissimum.

Substrate in data set [3]: COc1cc(CO)ccc1O
In kind it is biochemical, Penicillium simplicissimum.

Substrate in data set [4]: COCc1ccc(O)cc1
In kind it is biochemical, Penicillium simplicissimum.

Substrate in data set [5]: Oc1ccc(Cc2ccc(O)cc2)cc1
In kind it is biochemical, Rhodococcus jostii.

Substrate in data set [6]: CCCc1ccc(O)c(OC)c1
The data set is classed as biochemical, Rhodococcus jostii.

Substrate in data set [7]: COc1cc(CO)ccc1O
The data set is classed as biochemical, Rhodococcus jostii.

Substrate in data set [8]: COCc1ccc(O)cc1
In kind it is biochemical, Rhodococcus jostii.

B1: VAO (Penicillium simplicissimum) (protein)
chain: MSKTQEFRPLTLPPKLSLSDFNEFIQDIIRIVGSENVEVISSKDQIVDGSYMKPTHTHDPHHVMDQDYFLASAIVAPRNVADVQSIVGLANKFSFPLWPISIGRNSGYGGAAPRVSGSVVLDMGKNMNRVLEVNVEGAYCVVEPGVTYHDLHNYLEANNLRDKLWLDVPDLGGGSVLGNAVERGVGYTPYGDHWMMHSGMEVVLANGELLRTGMGALPDPKRPETMGLKPEDQPWSKIAHLFPYGFGPYIDGLFSQSNMGIVTKIGIWLMPNPRGYQSYLITLPKDGDLKQAVDIIRPLRLGMALQNVPTIRHILLDAAVLGDKRSYSSRTEPLSDEELDKIAKQLNLGRWNFYGALYGPEPIRRVLWETIKDAFSAIPGVKFYFPEDTPENSVLRVRDKTMQGIPTYDELKWIDWLPNGAHLFFSPIAKVSGEDAMMQYAVTKKRCQEAGLDFIGTFTVGMREMHHIVCIVFNKKDLIQKRKVQWLMRTLIDDCAANGWGEYRTHLAFMDQIMETYNWNNSSFLRFNEVLKNAVDPNGIIAPGKSGVWPSQYSHVTWKL
notes: synthetic gene, expressed and purified like BpfA (E. coli, Ni-NTA); contains flavin
For the protein B1, the Km in data set [1] worked out at 205.6 ± 18.5 µM; in data set [2] it was 71.4 ± 11.6 µM; in data set [3], 140 ± 12.3 µM; in data set [4], 72.0 ± 7.1 µM. The kcat in data set [1] worked out at 0.05 ± 0.001 s⁻¹; in data set [2], 5 ± 0.02 s⁻¹; in data set [3], 6.0 ± 0.2 s⁻¹; in data set [4] it was 3.9 ± 0.009 s⁻¹. Also, the kcat/Km in data set [1] came out at 0.2 b; in data set [2], 70.4 b; in data set [3] it was 42.9 b; in data set [4], 54.2 a.

B2: EUGO (Rhodococcus jostii RHA1) (protein)
chain: MTRTLPPGVSDERFDAALQRFRDVVGDKWVLSTADELEAFRDPYPVGAAEANLPSAVVSPESTEQVQDIVRIANEYGIPLSPVSTGKNNGYGGAAPRLSGSVIVKTGERMNRILEVNEKYGYALLEPGVTYFDLYEYLQSHDSGLMLDCPDLGWGSVVGNTLDRGVGYTPYGDHFMWQTGLEVVLPQGEVMRTGMGALPGSDAWQLFPYGFGPFPDGMFTQSNLGIVTKMGIALMQRPPASQSFLITFDKEEDLEQIVDIMLPLRINMAPLQNVPVLRNIFMDAAAVSKRTEWFDGDGPMPAEAIERMKKDLDLGFWNFYGTLYGPPPLIEMYYGMIKEAFGKIPGARFFTHEERDDRGGHVLQDRHKINNGIPSLDELQLLDWVPNGGHIGFSPVSAPDGREAMKQFEMVRNRANEYNKDYAAQFIIGLREMHHVCLFIYDTAIPEAREEILQMTKVLVREAAEAGYGEYRTHNALMDDVMATFNWGDGALLKFHEKIKDALDPNGIIAPGKSGIWSQRFRGQNL
notes: as for B1
Regarding B2, the Km stood at 185.1 ± 11.3 µM in data set [5], 59.3 ± 0.7 µM in data set [6], 89.6 ± 11.3 µM in data set [7] and 73.2 ± 1.5 µM in data set [8]. Moreover, the kcat in data set [5] was 0.04 ± 0.003 s⁻¹; in data set [6] it was 4.8 ± 0.002 s⁻¹; in data set [7] it was 5.9 ± 0.3 s⁻¹; in data set [8] it was 4.1 ± 0.01 s⁻¹. Also, the kcat/Km is 0.2 b in data set [5], 80.9 b in data set [6], 65.8 a in data set [7] and 56.0 a in data set [8].
